Experimental data reported in a protein production outcome set (Wang et al. 2014).

Experiment: label from the status in PepcDB records
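Note: failed if final PepcDB status was selected cloned or expressed and not failed if soluble or beyond.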

Q: With “MTGQVLDGRYRLVERLGSGGMGEVWRGHDERLGRTVAIKLIHPGASVDDEAVALFRREAQVTARLAGHPNIVILYDYGTDGDTVYTVMELVTGCSLSALLRERGRLPVELAVRWGAHVCAGLAAAHAVGVVHRDIKPSNLMVVDADAPDGGTVKLVDFGIAGFHEAALHQRTLPPTGEPFGTPLYVSPEQIQMLPVGAFSDLYSFGAVLFHMLTGQPPFHAAEPMPVLRMHLTEPPPNPAELRPDVPAELAELVLMLLAKDPGQRPDNALWVRDRLLSLSGTSPPASAASPTESASREAQMRRLEQSWVEAERLAAAGQAAAAAQRIGALLGELAAIYGADHPATLEARRRHASLTSRAGDPERAAALFDTLVADLDRIYGHAHPETYAARHHLAAATEQAGRRAEAAVLRSELVDALTAQYGPQAARLLHPRLFYAVDLAEAGDFTGAEKLLRDLAAALEQQLGAHTPALQIVHHYLDAAAAFASETAGAEPPHPNRFRESTRLDGRPPPHPLRQRLTRWLRSTTEL” as the sequence, how does the protein production read?
A: failed

Q: With “MTGTPCPDFTLPGTAGADFQLSSSRKPLVIYFYPKDNTPGCTNESMAFRDLHPEFAALGAEIVGISRDSLKSHQNFKAKLELPFELLSDSEETACSLFGVIKMKNMYGKQVRGIERSTFVIDASGKVSREWRGVKVPGHAEEVLAYVKTLK” as the sequence, how does the protein production read?
A: failed

Q: For “MTGVIAGPSVLGAVSSGSIESLAELGVILLLFTIGLEMSAERFGEFRRTALIGGTLQICLTVSVVTILTMVLGLSPGKAVFLGFLISLSSTAVVLKVLQDFHETEAPHGQASLAILIFQDVAAVPMILTVPFLGGVVGDPSSALGTLLTAGAVLPWEPCIGKVLVPRLFDVVAATGSREIFLLTVILVCASVTWLTGEVGLSPALGAFLVGSIVANTEYAHRAQGTILPFQEVFLSFFFVSLGMLLDLRFFLDHIYLIVLAVIGVLMIKVVMNSLVGFVMGYSARVVVLLGLVLAQIGEFSFILSETGLRYGLMDRLTFQAFLSVSLITMAITPFLISLSPRISERIVRADLHPRIKNGRVYRRPSVDLRDHLIIIGMGITGRRLADTCEDHGIPYIGLDVNPEAVRRARDEGLNVYYGDGTHLAVLRHFNVPEAAVMVIAIADYRSTVHAIHEARALNEGMKIIARIRGFENTEMLYTAGADVVVSEKREATRRISDEIFSCYSGVCELEE”, which protein production is on record?
A: failed

Q: With “MTHCADNGAPLAARQSAARARMSLPVDSPDAATAADSLPPAPAPRPRAPASLVVLATLAVGYTLWAAQTIILPIMLAAFFALIGNPILRGLRKLYIPRFLGALLILCLGLAGTVTLAAQLAGPAAEWVQQAPRQMRQIARDVRDLTKPVMQANQAAENFARAAGGEGQRGVQIVRTQMDDPYKALVRTPKLAASVLAVVLLTFFFMVYGESLQRHAIALLPNRQQQRFTTEIMLDIEREVSRYVLTISVINTLVGLVFAGILYVLQIPLPEAILWGTVVALLNFAPYVGPLIGVMLMLLMGFVEFRTTLSSLLPAILYLALHTIEGQVVTPIVLGRRMAISPLMLILALMLFGWLWGMVGLLLAVPLLVCIKMVLSRVDGMQRWARLLE” as the sequence, how does the protein production read?
A: failed

Q: With “MTHEAMSPGEWKAKGGGLTIRYGFHASPFGLALVMITDRGLAGCAFADPGDERACFEDMAGRWPNADYVEDREATAPYAARIFEPAMWTADKPLRVVLEHHHHHH” as the sequence, how does the protein production read?
A: not failed

Q: With “MTHERGYDLASQVLNICNVHHKKLFCHITYRHLLVLSSDDNGCVILKKVITIADDFLKDEFLDLIAQHAHSLSMHDLGISLIQHVLELDFTKKTTQDDKRLHELMAEFDEVLSTSVTADVDKLHKLASKLMLDSDLFFEFVITRRGSLMIQIILGKSEEVDQVILAGVKQRFIDVTTNFYGYRIMIQTIKVFKKRGDLKVYDQILRLIGVHALYLTKDPDMGNKTFQHAINLHHQDCTTFIACGLQSHYIELSFLKHGSKIVEMLIDDRISMVPLVLLMMEIVKCDEDTLVRLATDEYGNNILKKFLALAKEHKEDFFGDLVDKLNPLLDSLRGTLGENIVAIIDSETEMVKDRIVSQGNN” as the sequence, how does the protein production read?
A: failed

Q: Which protein production does the source give for “MTHPFEPFFDKDSKILILGSFPSIKSRQDGFYYQHPRNRFWPILETLFNAKLENITEQQAFLRKKHIALWDVLQSCKIKNSDDKTISYAKANDLNLILSQTKIQAIFTTGQSAYRFFVKFHPRLEAIALPSTSPANLNFSFEQLLQNYEIIKKFTKLEHHHHHH” here?
A: failed

Q: With “MTHPLYIFDLDETLINGDCAMIWNEFLVDKGIVTTPDFLEEDKRLMTLYSRGLMDMEDYLIFAMSPLKNIPTDQVEILIEECVNERILPLLFPEAKILIHQLKADNVDMIVISASVSFLVKIVAKNIGIKHAIGIDLKEKNGCYTRHILGVPSYREGKVSRLTEWLNGGDKTYSALHFYTDSINDLPLCLYADHTYLVNPCEQLAVYSKKKNWPILAWGSQ” as the sequence, how does the protein production read?
A: failed
